This note sets out measurements from article PMC8506970.

The target of the assay is His-mATGL288-Str (expression product of pST44-HIS-SMT3-TEV-mATGL288-STR) (mouse) (UniProt Q8BJ56).
Sequence of His-mATGL288-Str (expression product of pST44-HIS-SMT3-TEV-mATGL288-STR) (mouse) (Q8BJ56 1-288): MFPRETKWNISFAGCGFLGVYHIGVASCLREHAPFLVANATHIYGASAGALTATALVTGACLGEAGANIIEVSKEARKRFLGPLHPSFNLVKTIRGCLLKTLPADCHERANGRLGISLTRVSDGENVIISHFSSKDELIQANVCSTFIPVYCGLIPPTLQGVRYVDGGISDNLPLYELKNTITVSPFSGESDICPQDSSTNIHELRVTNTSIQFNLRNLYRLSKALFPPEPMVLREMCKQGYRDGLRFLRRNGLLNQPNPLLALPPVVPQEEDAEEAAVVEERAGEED

Sequence of CGI-58 (expression product of pST44-SMT3-TEV-mCGI58-HIS) (Q9DBL9 whole entry): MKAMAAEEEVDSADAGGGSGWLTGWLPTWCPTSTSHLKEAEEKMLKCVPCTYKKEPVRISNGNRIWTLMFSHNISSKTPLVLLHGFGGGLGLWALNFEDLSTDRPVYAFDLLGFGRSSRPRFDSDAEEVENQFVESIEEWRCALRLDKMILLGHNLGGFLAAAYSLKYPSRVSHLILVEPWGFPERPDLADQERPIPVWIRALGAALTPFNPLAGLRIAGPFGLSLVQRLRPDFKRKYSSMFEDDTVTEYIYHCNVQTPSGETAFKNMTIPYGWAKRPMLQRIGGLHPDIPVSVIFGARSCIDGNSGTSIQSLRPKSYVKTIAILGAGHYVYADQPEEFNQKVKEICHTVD

“CGI-58 (expression product of pST44-SMT3-TEV-mCGI58-HIS) (from UniProt Q9DBL9 1-351) (natural protein)”: the TAG hydrolase activity of His-mATGL288-Str coactivated by CGI-58 after storage at 4 °C, against fresh protein was 50 % loss; the TAG hydrolase activity of His-mATGL288-Str coactivated by CGI-58 within 10 days of storage at -80 °C (snap frozen, 10% glycerol), against fresh protein was found to be 50 % loss; the TAG hydrolase activity of freshly purified His-mATGL288-Str, CGI-58-stimulated against basal (equimolar mCGI-58) turned out to be 10 fold; the TAG hydrolase activity upon CGI-58 coactivation of His-mATGL288-Str frozen in sucrose buffer at -80 °C, alone or as complex with CGI-58, against fresh protein turned out to be 40 % loss.
